Results: the RNAGym collection of RNA variant scans (doi:10.1073/pnas.2313332121)
Fewer inactive variants are shown than the library holds.

B1: TPR 5TU (parent)
chain: GGAUCUUCUCGAUCUAACAAAAAAGACAAAUCUGCCACAAAGCUUGAGAGCAUCUUCGGAUGCAGAGGCGGCAGCCUUCGGUGGCGCGAUAGCGCCAACGUUCUCAACUAUGACACGCAAAACGCGUGCUCCGUUGAAUGGAGUUUAUCAUG

Variants of: B1
Assay: polymerase ribozyme fitness, log enrichment relative to wild type (log ratio); higher = more active; in vitro selection for triplet polymerase activity
Summary of the method: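 Each subunit of a heterodimeric triplet polymerase ribozyme was represented by a PCR-built, transcribed mutant library that underwent triplicate single-round in vitro selection with frozen incubation at −7 °C. Extended constructs were recovered by gel excision, streptavidin-bead capture and RT-PCR, and Illumina sequencing of input and output libraries kept genotypes with ≥10 input reads and ≥1 read per output. Fitness is the logarithm of genotype enrichment relative to wild-type enrichment, from inverse-variance-weighted replicate averages, with a logarithm base of 2.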

Row | Variant | polymerase ribozyme fitness (log ratio)
1 | U31A G59C C75U A91U U109G G112A | ≤ -4.2
2 | U31C U33C G50U C76U G83C | ≤ -4.2
3 | U31G U56G C93G C96G G133C | ≤ -4.2
4 | C32A A41C A66C C95U C99G G117U A150C | ≤ -4.2
5 | U31G U33A C75G A91G G140A G152A | -3.96
6 | U31G A37U A41C C75U C76G C96U C105U G117U G133U U134C | ≤ -4.2
7 | U31G C95A C123G | 0.831
8 | U31C U56A G58C A98U C149U | 0.414
9 | U31G G59A G92U | -0.919
10 | U31A G94A | -0.349
11 | U31A C57U C87U A89G G117A | -3.86
12 | U31A C95G U130A | -3.43
13 | U31G C95U | 0.463
14 | U31G C95A | 0.165
15 | U31G G50A C87A U135A | ≤ -4.2
16 | U31G C93G G133U U134C | ≤ -4.2
17 | U31G G58C G140C | -4
18 | U31G A37C G126U | -2.65
19 | U31G A60G G152U | -3.16
20 | U31C C54U G71U C96U | -3.79
21 | U31A C51U A73G C95G | -3.09
22 | U31A U135G G143C | -3.93
23 | U31A U90G | ≤ -4.2
24 | U31A U144A | 0.137

Row | Variant | polymerase ribozyme fitness (log ratio)
25 | U31C C96G A137U | ≤ -4.2
26 | U31G C32U C75G A98G A121C G133A | ≤ -4.2
27 | U31A C57A C87U A97C G117A A119U | 1.02
28 | C32A A40C G84A | ≤ -4.2
29 | U31G C35U A60U A115G | -3.22
30 | U31C A60U A110G C118G U144C | -3.59
31 | U31A U44A G68A G81A U104G C125A | ≤ -4.2
32 | U31A C76U C116U U127G | ≤ -4.2
33 | U31A U53G G84U C96G | ≤ -4.2
34 | U31G C95G C105G | ≤ -4.2
35 | U31A C85A | -0.724
36 | U31A U45A C76U C85U C93U G136U A150C | ≤ -4.2
37 | U31A U45A A47C C93U C99G U135A | ≤ -4.2
38 | U31C G58A G94U G143U | -2.9
39 | U31G A40G U61A C87U G112U G141C | ≤ -4.2
40 | U31C C79G U139C U144G | ≤ -4.2
41 | U31G U148C | -2.37
42 | U31G C57U G83C C87A | ≤ -4.2
43 | U31G A41C C75U C85G G88C A137U | ≤ -4.2
44 | U31C U55A U101C | 0.401
45 | U31A G83C C105U U127G G133A A137C | ≤ -4.2
46 | U31G U145A | 0.652
47 | U31G C35A G42A | ≤ -4.2
48 | U31A U55A A147G | -0.55

Row | Variant | polymerase ribozyme fitness (log ratio)
49 | U31G A52U A60G A98G | -4
50 | U31G C54U U101C | -0.138
51 | U31C C95G | -0.224
52 | U31C C57G C87U U102A G136A | -0.199
53 | U31A C76U C93G | -2.71
54 | U31C U53G | -0.735
55 | U31C G42A U44G A60G A66G U82A C85A G128A | ≤ -4.2
56 | U31G G42U G58U G59A G86U U104G C131G G136C | ≤ -4.2
57 | U31G C125U U130A | ≤ -4.2
58 | U31C A39C C57A C76G C95G C131U U144G | ≤ -4.2
59 | U31C C69U G86U C96U | -3.55
60 | U31G G42C G50C C57A C79G G80C G136C | ≤ -4.2
61 | U31C C87A | -4.2
62 | U31G G58A C85A C114G A115U | -4.05
63 | U31C A40C G94A | 1.25
64 | U31A C69A C95A C116G | -2
65 | U31C G34U A52U U56A A60G G84A G92A C95G C105A A110C G133C U148A | ≤ -4.2
66 | U31A G46C C95U | -1.57
67 | U31G A40G G83C A142G | ≤ -4.2
68 | U31C C69U G86U C96U A142G | -2.99
69 | U31A C96U A115C U146C | -0.845
70 | C32A A37U U56A G74A C76G G86A A115G G124A U151G | ≤ -4.2
71 | U31A C54U G83U G94U G124A A142C | -4.09
72 | U31A C93A A115C | -1.71

Row | Variant | polymerase ribozyme fitness (log ratio)
73 | U31A U55G C93G A110C A115U C123G | ≤ -4.2
74 | U31C U55A G136U A150G | -1.81
75 | U31A C131A | -1.89
76 | U31A G86U | -0.886
77 | U31G C99U C116U A137G | -1.84
78 | U31A G58C U61A C87G C96U C99U C114G A150G | ≤ -4.2
79 | U31A C125A | 0.0765
80 | U31C A60C C95A C99G A122G | -3.66
81 | U31A U53A | -0.327
82 | U31A C51G | -0.943
83 | U31C U102A | 0.128
84 | U31A C69G A89U C96G U104A | -3.89
85 | U31G C116G U144C | -4.03
86 | U31G A40C G42A G50A C54U C72U G94U | ≤ -4.2
87 | U31C A39C C54U A73G U90G G124A | ≤ -4.2
88 | U31C C76U C93G U102C U145G | ≤ -4.2
89 | U31A U55A A97U U145G | -0.219
90 | U31G U53A A89C C93G G100A A137C A147U G152C | ≤ -4.2
91 | U31C A47U G88A C108A | ≤ -4.2
92 | U31C G46C G92A | -3.48
93 | U31A U53A C95U A119G | -0.866
94 | U31G C54A C95A A142U | -3.34
95 | U31A G59A G84A U102G G128C A142C | ≤ -4.2
96 | U31C C35G C36U C51G G92C U109A U151A | ≤ -4.2

Row | Variant | polymerase ribozyme fitness (log ratio)
97 | U31A C36A A52G C76A C95U G124A G140U U145G | ≤ -4.2
98 | U31G G83U G126C | -0.857
99 | U31G U53A C95U U135G | -3.6
100 | U31G U45A A49C G84A A113G A142C | ≤ -4.2
101 | U31C C99G C103U | -0.958
102 | U31A G84A G100A C108G C123G | ≤ -4.2
103 | U31A G88A U90A G133A | ≤ -4.2
104 | U31C C36A C96U A150G | ≤ -4.2
105 | C32A | -2.96
106 | U31G G59U C69A U134G G136U | -3.84
107 | U31A G86A U134C | -0.431
108 | U31G C57G G58A A106G U111G G143U U144A | ≤ -4.2
109 | U31C A52C C57U G59C C99U U145G | -3.63
110 | U31A G65U C93G U135C | ≤ -4.2
111 | U31G U53G G70U A89U C93U C114A C123G U135C G152U | ≤ -4.2
112 | U31G A37U A49C C93A A106G G117C U145C U148A | ≤ -4.2
113 | U31C A47G A49U G94A A119G G136C | -4.04
114 | U31G U56A G80C C87G C99G | ≤ -4.2
115 | U31C A121C U134A | -1.76
116 | U31C C35U G68C G92U U104A A115U A119C G143A | ≤ -4.2
117 | U31A U45A U55G C85U C95G A120G A142U | -4.06
118 | U31C G50A C96G | -0.777
119 | U31A C32A G59A C93G A113U A150C | ≤ -4.2
120 | U31C U53G G67C C76G G83A | -3.62

Row | Variant | polymerase ribozyme fitness (log ratio)
121 | U31A C54G C57A C85G C123U | -3.47
122 | U31C G83C G140C | -4.18
123 | U31A G58C C75A C103U U109A A110G | ≤ -4.2
124 | U31C G86U C96U | -0.694
125 | U31A U56A U127C | -1.37
126 | U31C C38G A47G C51A U56A G83C U146C U148C | ≤ -4.2
127 | U31C A41U A115G U144G | -1.6
128 | C32A A39U G58A C72U G80U G83A | ≤ -4.2
129 | U31G C123U | 0.732
130 | U31C A60C G92A C99A | ≤ -4.2
131 | U31G C123G A142G | -1.12
132 | U31G A122U A142C | -1.56
133 | U31A U53A G68U C95A C149G | ≤ -4.2
134 | U31A G81C C96G U111A G126A | ≤ -4.2
135 | U31A G50C C85U | -3.83
136 | C32A A39U C79A C85A C129G | ≤ -4.2
137 | U31A G68C C76A C85A | ≤ -4.2
138 | U31A C85U C114U | -1.15
139 | U31C C43A A66C C79U C85A A120C G140U | ≤ -4.2
140 | U31A U44A A52C G71U G83C G86A A97C U104A | ≤ -4.2
141 | U31A C35G A66C G68U | -4.17
142 | U31C U44A C54A C76G C95G C105G A107G | -4.01
143 | U31A C54A G84A C96U C132U | -3.31
144 | U31G C87U U127A | -3.89

Row | Variant | polymerase ribozyme fitness (log ratio)
145 | U31A C38A G50C C85U | ≤ -4.2
146 | U31A U55A G83A G117A | -0.253
147 | U31G U56A G136A A147C | -0.143
148 | U31G G65A | -1.83
149 | U31G G65U | ≤ -4.2
150 | U31G A89C C95G C99A | ≤ -4.2
151 | U31C C63G G83A C96U | 1.61
152 | U31C A41G U53A U55A | -0.0378
153 | U31A G48C C85A | -2.98
154 | U31C G84A | 0.831
155 | U31G G50A | -1.51
156 | U31C A37C A106U A107C | ≤ -4.2
157 | U31C G86C C93U A98U | -1.96
158 | U31C C54A C93G | ≤ -4.2
159 | U31G U55A A142U | -1.54
160 | U31G G62C G88C A119G | ≤ -4.2
161 | U31A C32G A41U G67U G80C G86C A147U | ≤ -4.2
162 | U31C C85U | 0.604
163 | U31A C85G C96G A142C | ≤ -4.2
164 | U31A U56A G86A A97C C105A U145C | ≤ -4.2
165 | U31A C87G C114A | -4.03
166 | U31C U101C G124A | 1.05
167 | U31A G50A C51G G59A G68C G86C G94U G124U | ≤ -4.2
